{"source": "patent US6407207B1", "about": "“Cloned and expressed human bradykinin BK-2 receptor” (Merck & Co., Inc., priority 1992, dated 2002)", "molecules": {"B1": {"name": "Hoe 140, D-Arg^0-[Hyp^3,Thi^5,D-Tic^7,Oic^8]BK (peptide)", "peptide": "RRPPGFSPFR", "modifications": "numbered on bradykinin: D-Arg at 0; Hyp at 3; Thi at 5; D-Tic at 7; Oic at 8", "notes": "Synthetic BK-2 antagonist with non-natural residues"}, "B2": {"name": "met-lys-BK (peptide)", "peptide": "MKRPPGFSPFR", "notes": "It is built from its name (Met-Lys + bradykinin)"}}, "key": {"human BK-2 receptor": {"target": "T1, human BK-2 receptor (Homo sapiens, UniProt P30411)", "T1 construct": "permitted the construction of a cDNA clone encoding a full length BK-2 receptor from the cleavage fragments of the two clones; expressed in transfected cells; host or cells: COS-7 cells, vector pcDNA I-Neo, membranes", "T1 sequence (P30411 1-364 isoform P30411-2)": "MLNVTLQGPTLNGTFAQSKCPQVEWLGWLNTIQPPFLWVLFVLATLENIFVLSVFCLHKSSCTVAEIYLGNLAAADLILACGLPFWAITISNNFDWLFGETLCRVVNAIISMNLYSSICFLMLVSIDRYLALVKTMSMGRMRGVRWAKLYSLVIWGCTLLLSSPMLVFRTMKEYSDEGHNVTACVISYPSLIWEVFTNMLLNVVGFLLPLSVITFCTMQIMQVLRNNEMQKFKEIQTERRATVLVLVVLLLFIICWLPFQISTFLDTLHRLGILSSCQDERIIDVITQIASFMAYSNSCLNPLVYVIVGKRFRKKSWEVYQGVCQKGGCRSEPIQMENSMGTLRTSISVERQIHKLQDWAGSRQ", "test": "Competition binding against 100 pM [3H]BK, membranes of COS-7 cells expressing the cloned receptor", "conditions": "for Inhibition of BK binding: at a concentration of 10 uM; for IC50: competition with [3H]BK, read-out: IC50, displacement of [3H]BK binding", "method": "(§1) Cells are then harvested after 72 hours and the membranes containing the expressed receptor protein are prepared by scraping the cells in phosphate buffered saline solution and centrifuging for ten minutes at 500×g. The cell pellet is then resuspended and homogenized with a Polytron in 20 mM N-tris(hydroxymethyl)methyl-2-aminoethane sulfonic acid (TES, pH 6.8 at room temperature) buffer containing 1 mM 1,10 phenanthroline. The homogenate is then centrifuged for ten minutes at […]. The final membrane pellet is resuspended in assay buffer (TES plus 0.1% protease free bovine serum albumin, 5 uM MK-422 (enalaprilat; Gross et al., J. Pharmacol. and Exper. Ther. 216, 552-557 (1981)) and 140 ug/ml bacitracin using a motor-driven teflon-glass tissue homogenizer. Protein determination are performed by the method of Bradford using bovine IgG as the standard. See Bradford, M. A. Anal. Biochem. 72, 248-254 (1976).\n(§2) Binding assays are then performed to determine receptor antagonist or agonist interaction. The assays utilized in the instant invention follow the method of Manning et al., J. Pharmacol. Exp. Ther., 237, 504-512 (1986). […] (BRANDEL, Gaithersburg, Md.). The tubes are then rinsed two times with 4 ml ice-cold 10 uM TES and the filter bound radioactivity is quantitated by liquid scintillation counting. […] The competition and saturation experiments are analyzed using the EBDA program of McPherson. See McPherson, G. A. J Pharmacol. Methods 14, 213-218 (1985).\nas §1, with “Cells were” for “Cells are”, “protein were” for “protein are”, “pellet was” for “pellet is”, “homogenate was” for “homogenate is”, “al., 1981)” for “al., J. Pharmacol. and Exper. Ther. 216, 552-557 (1981))”, “determination was” for “determination are”\nas §2, with “assays were” for “assays are”, “tubes were” for “tubes are then”, “[…]” for “uM TES”, “radioactivity was” for “radioactivity is”, “experiments were” for “experiments are”"}, "rat vas deferens": {"system": "rat vas deferens", "conditions": "cited from earlier work"}, "B2 receptors": {"target": "T2, B2 receptors (Homo sapiens, UniProt P30411)", "T2 sequence (P30411 1-391)": "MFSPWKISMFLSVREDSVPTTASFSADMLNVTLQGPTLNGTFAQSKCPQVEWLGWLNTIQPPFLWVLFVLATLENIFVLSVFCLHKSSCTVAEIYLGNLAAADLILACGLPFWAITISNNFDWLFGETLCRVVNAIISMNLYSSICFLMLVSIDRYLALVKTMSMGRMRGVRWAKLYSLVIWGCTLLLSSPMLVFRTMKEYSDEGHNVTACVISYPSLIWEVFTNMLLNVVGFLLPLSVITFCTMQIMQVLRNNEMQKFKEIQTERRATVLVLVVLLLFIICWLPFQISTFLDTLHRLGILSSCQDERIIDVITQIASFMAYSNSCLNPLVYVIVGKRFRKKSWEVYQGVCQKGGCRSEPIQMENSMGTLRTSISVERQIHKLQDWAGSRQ", "conditions": "cited from earlier work"}, "[1]": {"target": "T3, human bradykinin BK-2 receptor protein (human, UniProt P30411 28-391)", "T3 construct": "also called human BK-2 bradykinin receptor; cloned BK receptor", "T3 sequence": "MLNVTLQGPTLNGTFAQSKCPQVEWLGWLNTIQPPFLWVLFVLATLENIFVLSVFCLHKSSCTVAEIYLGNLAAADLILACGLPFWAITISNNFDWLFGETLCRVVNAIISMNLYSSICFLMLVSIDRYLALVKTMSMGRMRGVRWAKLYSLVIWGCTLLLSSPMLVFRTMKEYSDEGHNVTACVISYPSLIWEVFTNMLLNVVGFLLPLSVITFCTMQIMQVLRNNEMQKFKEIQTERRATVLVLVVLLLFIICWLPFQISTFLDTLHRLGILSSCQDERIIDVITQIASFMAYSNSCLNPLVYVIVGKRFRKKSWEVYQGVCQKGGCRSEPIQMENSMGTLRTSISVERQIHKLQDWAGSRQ", "test": "competition binding with 100 pM [3H]BK, membranes of COS-7 cells expressing the receptor", "method": "as §2, with “*J.” for “J.”, “Ther.*,” for “Ther.,”, “504–512” for “504-512”, “*J” for “J”, “Methods*” for “Methods”, “213–218” for “213-218”\n(§3) Binding assays were then performed to determine receptor antagonist or agonist interaction. The assays utilized in the instant invention follow the method of Manning et al., *J. Pharmacol. Exp. Ther.*, 237, 504–512 (1986). […] (BRANDEL, Gaithersburg, Md.). The tubes were rinsed two times with 4 ml ice-cold 10 uM TEX and the filter bound radioactivity was quantitated by liquid scintillation counting. […] The competition and saturation experiments were analyzed using the EBDA program of McPherson. See McPherson, G. A. *J Pharmacol. Methods* 14, 213–218 (1985)."}, "[2]": {"target": "T3, human bradykinin BK-2 receptor protein", "test": "competition binding with 100 pM [3H]BK, cloned human BK-2 receptor in membranes", "method": "as §3, with “assays are” for “assays were”, “tubes are then” for “tubes were”, “[…]” for “uM TEX”, “radioactivity is” for “radioactivity was”, “experiments are” for “experiments were”\nas §3"}, "[3]": {"target": "T4, human bradykinin BK-2 receptor protein (human), P30411", "T4 chain": "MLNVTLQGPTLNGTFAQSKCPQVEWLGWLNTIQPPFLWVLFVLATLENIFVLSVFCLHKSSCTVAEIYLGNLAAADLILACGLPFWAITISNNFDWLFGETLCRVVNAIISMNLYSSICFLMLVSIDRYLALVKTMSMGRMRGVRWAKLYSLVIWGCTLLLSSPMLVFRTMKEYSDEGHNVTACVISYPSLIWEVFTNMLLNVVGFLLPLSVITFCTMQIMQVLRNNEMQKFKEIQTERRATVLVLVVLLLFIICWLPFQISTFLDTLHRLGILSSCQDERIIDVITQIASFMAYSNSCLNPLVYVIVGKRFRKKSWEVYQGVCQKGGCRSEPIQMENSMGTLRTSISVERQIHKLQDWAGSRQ", "test": "displacement of 100 pM [3H]BK, cloned human BK-2 receptor in membranes"}}, "note": "Where a SMILES comes first, the peptide text is derived from it. Where no end group is shown, it is not given here. [ ]: non-standard residue; d: D form. Hyp = O=C(O)[C@@H]1C[C@@H](O)CN1; 2Thi = N[C@@H](Cc1cccs1)C(=O)O"}
{"molecule": "angiotensin I (DRVYIHPFHL) [peptide]", "values": [{"measurement": "Competition for BK binding", "setting": "human BK-2 receptor", "result": "No competition"}]}
{"molecule": "met-lys-BK", "values": [{"measurement": "Specificity of binding of BK analogues (rank order)", "setting": "human BK-2 receptor; competition binding, data not shown", "result": "BK>lys-BK>met-lys-BK"}]}
{"molecule": "Des-Arg^9BK (RPPGFSPF) [BK-1 agonist, BK metabolite]", "values": [{"measurement": "Inhibition of BK binding", "setting": "human BK-2 receptor", "result": 18, "unit": "%"}, {"measurement": "Pre- or postsynaptic BK like responses", "setting": "rat vas deferens", "result": "inactive"}, {"measurement": "Activity at B2 receptors", "setting": "B2 receptors", "result": "inactive"}]}
{"molecule": "N=C(N)NCCC[C@@H](N)C(=O)N[C@@H](CCCNC(=N)N)C(=O)N1C[C@H](O)C[C@H]1C(=O)N1C[C@H](O)C[C@H]1C(=O)NCC(=O)N[C@@H](Cc1cccs1)C(=O)N[C@@H](CO)C(=O)N[C@H](Cc1ccccc1)C(=O)N[C@@H](Cc1cccs1)C(=O)N[C@@H](CCCNC(=N)N)C(=O)O", "note": "[D-Arg^0-[Hyp^2,3,-Thi^5,8D-Phe^7]BK] (H-[dR]R[Hyp][Hyp]G[2Thi]S[dF][2Thi]R-OH; N-terminus and C-terminus assumed)", "values": [{"measurement": "IC50", "setting": "human BK-2 receptor", "result": 27, "unit": "nM"}]}
{"molecule": "angiotensin II (DRVYIHPF) [peptide]", "values": [{"measurement": "Competition for BK binding", "setting": "human BK-2 receptor", "result": "No competition"}]}
{"molecule": "des-Arg^9-[Leu^8]-BK [Des-Arg^9, LeuBK]", "values": [{"measurement": "Inhibition of BK binding", "setting": "human BK-2 receptor", "result": 11, "unit": "%"}, {"measurement": "Pre- or postsynaptic BK like responses", "setting": "rat vas deferens", "result": "inactive"}, {"measurement": "Antagonism of BK responses in the vas deferens", "setting": "rat vas deferens; incubation at high concentrations", "result": "failed to antagonize"}]}
{"molecule": "CC[C@H](C)[C@@H]1NC(=O)[C@H](Cc2ccc(O)cc2)NC(=O)[C@@H](N)CSSC[C@@H](C(=O)N2CCC[C@H]2C(=O)N[C@@H](CC(C)C)C(=O)NCC(N)=O)NC(=O)[C@H](CC(N)=O)NC(=O)[C@H](CCC(N)=O)NC1=O", "note": "[oxytocin]", "values": [{"measurement": "Competition for BK binding", "setting": "human BK-2 receptor", "result": "No competition"}]}
{"molecule": "CC[C@H](C)[C@H](NC(=O)[C@H](CC(=O)O)NC(=O)[C@H](CC(C)C)NC(=O)[C@H](Cc1c[nH]cn1)NC(=O)[C@@H]1CSSC[C@H](N)C(=O)N[C@@H](CO)C(=O)N[C@H]2CSSC[C@H](NC(=O)[C@H](CCC(=O)O)NC(=O)[C@H](CCCCN)NC(=O)[C@H](CC(=O)O)NC(=O)[C@H](CCSC)NC(=O)[C@H](CC(C)C)NC(=O)[C@H](CO)NC(=O)[C@H](CO)NC2=O)C(=O)N[C@@H](C(C)C)C(=O)N[C@@H](Cc2ccc(O)cc2)C(=O)N[C@@H](Cc2ccccc2)C(=O)N1)C(=O)N[C@H](C(=O)N[C@@H](Cc1c[nH]c2ccccc12)C(=O)O)[C@@H](C)CC", "note": "[endothelin]", "values": [{"measurement": "Competition for BK binding", "setting": "human BK-2 receptor", "result": "No competition"}]}
{"molecule": "N=C(N)NCCC[C@H](NC(=O)[C@H](Cc1cccs1)NC(=O)[C@@H](Cc1ccccc1)NC(=O)[C@H](CO)NC(=O)[C@H](Cc1cccs1)NC(=O)CNC(=O)[C@@H]1CCCN1C(=O)[C@@H]1CCCN1C(=O)[C@@H](N)CCCNC(=N)N)C(=O)O", "note": "[[Thi^5,8,D-Phe^7]BK] (H-RPPG[2Thi]S[dF][2Thi]R-OH; N-terminus and C-terminus assumed)", "values": [{"measurement": "IC50", "setting": "human BK-2 receptor", "result": 180, "unit": "nM"}]}
{"molecule": "CYIQNCPLG (peptide, UniProt P01178 20-28, looked up)", "note": "[oxytocin]", "values": [{"measurement": "binding result", "setting": "[1]", "result": "no binding"}]}
{"molecule": "B1", "values": [{"measurement": "IC50", "setting": "[2]", "result": 0.065, "unit": "nM"}]}
{"molecule": "B2", "values": [{"measurement": "binding result", "setting": "[1]", "result": "binds"}]}
{"molecule": "[dR]R[Hyp][Hyp]G[2Thi]S[dF][2Thi]R", "note": "[D-Arg^0-[Hyp^2,3,-Thi^5,8D-Phe^7]BK]", "values": [{"measurement": "IC50", "setting": "[3]", "result": 27, "unit": "nM"}]}
